Results from patent US20020115613A1, “Treatment of prostate cancer” (priority 2001, published 2002).

Experiments:
PC3Neo cells = assay: Induction of apoptosis / cell survival (FIG. 1E, 6A); format: cell-based
Protocol: Prostate cancer cell lines, PC3Neo and PC3AR were provided by Dr. K. Burnstein, University of Miami School of Medicine, Miami, Fla. PC3AR cells are a clonal cell line derived by stable transfection of PC3 with a full-length human AR cDNA (Dai, J. L., et al., Steroids, 61, 531-539, 1996). PC3Neo cells were stably transfected with neomycin vector alone. Cells were grown in RPMI 1640 with 5% FBS (Hyclone, Logan, Utah), 100 units/ml penicillin, 100 μg/ml streptomycin, 0.25 μg/ml fungizone and G418 (350 μg/ml) to select for neomycin-resistant cells. In experiments using antiandrogens, cells were maintained in 5% DCC stripped serum for at least 48 hr before treatment with hydroxyflutamide (Sigma Chemical Co., St. Louis, Mo.). The medium and all the drugs were replaced every two days. Cells were treated with 200 ng/ml, 400 ng/ml or 600 ng/ml of TRAIL (Biomol Research Laboratories, Inc, Plymouth Meeting, Pa.) for 2, 4, 6, 8, 16 and 20 hr. Cells were treated with 5 μM hydroxyflutamide for 5 days before the commencement of treatment with 400 ng/ml TRAIL.
Two methods were used to measure induction of apoptosis by drug treatment: the MTT assay and the Apoptosense assay. The MTT assay measures mitochondrial enzyme activity and is indicative of the number of surviving cells. The Apoptosense assay is an ELISA, which utilizes M30 antibody to recognize the C-terminal domain (amino acids 387-396) of cytokeratin 18 that is exposed in apoptotic cells after cleavage by caspases.
Cells were seeded in 96-well plates (6000 cells/well) and treatment was started 24 hr after seeding the cells. After completion of the treatment, cells were incubated at 37° C. with the MTT reagent for 3 hr and processed according to manufacturers instructions (Promega Corporation, Madison, Wis.). Color development was measured at 490 nm on a Spectra MAX 340 microplate reader (Molecular Devices, Menlo Park, Calif.).
To examine the role of NFκB in altered response to TRAIL, its function was blocked by over expressing mutated IκB protein (Kanegae, Y., et al., Nature 392, 611-614, 1998). […]

PC3AR cells = assay: as above; format: cell-based
[1] = 400 ng/ml TRAIL, by 20 hr, FIG. 1E

B1: Tumor necrosis factor α—Related Apoptosis Inducing Ligand (protein, UniProt P50591 1-281, looked up)
Tumor necrosis factor ligand …: MAMMEVQGGPSLGQTCVLIVIFTVLLQSLCVAVTYVYFTNELKQMQDKYSKSGIACFLKEDDSYWDPNDEESMNSPCWQVKWQLRQLVRKMILRTSEETISTVQEKQQNISPLVRERGPQRVAAHITGTRGRSNTLSSPNSKNEKALGRKINSWESSRSGHSFLSNLHLRNGELVIHEKGFYYIYSQTYFRFQEEIKENTKNDKQMVQYIYKYTSYPDPILLMKSARNSCWSKDAEYGLYSIYQGGIFELKENDRIFVSVTNEHLIDMDHEASFFGAFLVG
notes: 281 amino acid type II transmembrane protein of the tumor necrosis factor α family; purchased from Biomol
With B1 the “apoptotic response at 200 ng/ml” value (PC3Neo cells; 200 ng/ml TRAIL) was “lower response”, the “death of cells (apoptosis)” value (PC3Neo cells; [1]) was ~18% and the “apoptosis at higher dose” value (PC3Neo cells; 600 ng/ml TRAIL) was “did not significantly increase apoptosis”. The “apoptotic response at 200 ng/ml” value (PC3AR cells; 200 ng/ml TRAIL) was “lower response”, the apoptosis (PC3AR cells; [1]) was ~41% and the “apoptosis at higher dose” value (PC3AR cells; 600 ng/ml TRAIL) was “did not significantly increase apoptosis”.
